The values that follow come from article PMC3045386, “Insights into the Function of the CRM1 Cofactor RanBP3 from the Structure of Its Ran-Binding Domain” (PLoS ONE, 2011).

What is called Kd is the free concentration of one partner at which half of the binding sites on the other are occupied at equilibrium, for simple one-to-one binding. A low value points to tighter binding. For orientation: stoichiometry N means the number of molecules, sites or subunits per partner or assembly.

Assay [1] addresses T1, RanQ69L:GTP (human, UniProt P62826 1-216, Q69L). Briefly: ITC; 530 µM RanQ69L:GTP titrated into 48 µM full-length RanBP3; 25°C; 300 mM NaCl, 5 mM MgCl2, 10 mM TRIS pH 7.4; single-site binding model; Kd,obs. The note with it: both partners purified. Background: In ITC the heat of successive injections is recorded.
In assay [2] the target is T1, RanQ69L:GTP. In words: ITC; 800 µM RanBP3 RBD (residues 310–454) titrated into 70 µM RanQ69L:GTP; 25°C; 300 mM NaCl, 5 mM MgCl2, 10 mM TRIS pH 7.4; single-site binding model; Kd,obs. The note with it: both partners purified.

B1: Human full-length RanBP3 (residues 1–499; isoform B) (natural protein)
chain: MADLANEEKPAIAPPVFVFQKDKGQKRSAGGSSPEGGEDSDREDGNYCPPVKRERTSSLTQFPPSQSEERSSGFRLKPPTLIHGQAPSAGLPSQKPKEQQRSVLRPAVLQAPQPKALSQTVPSSGTNGVSLPADCTGAVPAASPDTAAWRSPSEAADEVCALEEKEPQKNESSNASEEEACEKKDPATQQAFVFGQNLRDRVKLINESVDEADMENAGHPSADTPTATNYFLQYISSSLENSTNSADASSNKFVFGQNMSERVLSPPKLNEVSSDANRENAAAESGSESSSQEATPEKESLAESAAAYTKATARKCLLEKVEVITGEEAESNVLQMQCKLFVFDKTSQSWVERGRGLLRLNDMASTDDGTLQSRLVMRTQGSLRLILNTKLWAQMQIDKASEKSIRITAMDTEDQGVKVFLISASSKDTGQLYAALHHRILALRSRVEQEQEAKMPAPEPGAAPSNEEDDSDDDDVLAPSGATAAGAGDEGDGQTTGST
In turn, B1 returned a Kd in the assay with RanQ69L:GTP [1] of 15 ± 3 µM.

B2: RanBP3 RBD (residues 310–454) (domain or fragment)
chain: KATARKCLLEKVEVITGEEAESNVLQMQCKLFVFDKTSQSWVERGRGLLRLNDMASTDDGTLQSRLVMRTQGSLRLILNTKLWAQMQIDKASEKSIRITAMDTEDQGVKVFLISASSKDTGQLYAALHHRILALRSRVEQEQEAK
For B2, in the assay with RanQ69L:GTP [2], binding was put at a Kd of 14 ± 0.3 µM and the “stoichiometry N” value came to 0.93 ± 0.01.
